According to paper PMC2173498 (The Journal of Cell Biology, 2002):

Biological target: the molecule itself
Test: SEC

B1: Nucleoplasmin-M9 (other)
chain: MASTVSNTSKLEKPVSLIWGCELNEQDKTFEFKVEDDEEKCEHQLALRTVCLGDKAKDEFNIVEIVTQEEGAEKSVPIATLKPSILPMATMVGIELTPPVTFRLKAGSGPLYISGQHVAMEEDYSWAEEEDEGEAEGEEEEEEEEDQESFGNYNNQSSNFGPMKGGNFGGRSSGPYGGGGQYFAKPRNQGGYG
In the case of B1, the “stoichiometry N” value is reported as 10.
